This is an account of results in patent CN115028722A (BIOCELLS BEIJING BIOTECH CO LTD, dated 2022).

For test [1], the target named is T1, 包含有His标签的重组人源TSLP蛋白(rhTSLP-His) (human).
T1 construct: also called rhTSLP-His重组蛋白; rhTSLP-His蛋白
Description: cell ELISA: antibody blocks binding of 100 ng rhTSLP-His to hTSLPR/hIL-7Rα-293T/17 cells. In general terms: In an ELISA, binding on a coated surface is turned into a signal by an enzyme label.

Test [2] has as its target T1, 包含有His标签的重组人源TSLP蛋白(rhTSLP-His). Description: ELISA, rhTSLP-His coated at 100 ng/well.
For test [3] the target is unchanged. Put plainly: ELISA as in Example 6, rhTSLP-His coated.
Test [4] shares this target. Put plainly: cell ELISA: antibody blocks binding of rhTSLP-His to hTSLPR/hIL-7Rα-293T/17 cells.

The term IC50 denotes the concentration that gives 50% inhibition. Low readings indicate higher potency, high ones lower potency. In general, EC50 refers to the concentration giving half of the maximal effect.

B1: 鼠源抗TSLP单克隆抗体5F10-2-25 (antibody, V domains shown)
VH: ELQQSGPQLVRPGASVKISCKASGYSFTSYWMHWVKQRPGQGLEWIGLIDPTDSEISLSQKFKDKATLTVDKLSSTAHMQLSSPTSEDSAVYYCARSLDGFFDQWGQGTTVTV
VL: DIDLTQSPASLSASVGETVTITCRTSENIYSYLAWYQQKQGKSPQLLVYNAKSLAEGVPSRFSGSGSGTQFSLKINSLQPEDFGSYYCQHHYDTPWTFGGGTKLENKT
notes: Mouse hybridoma monoclonal antibody
For the molecule B1, in test [1], the IC50 was found to be 13.4 µg/mL. This molecule yielded an EC50 in test [2] of 12.4 nM.

B2: 抗TSLP人源化单克隆抗体M432-69H13L (antibody, human IgG2, lambda, V domains shown)
VH: EVQLVQSGAEVKKPGATVKISCCASAYSFTTYWMHWVQQAPGKGLEWMGLIDPSDSETTLNQKFKDRVTLTVDKSTDTAYMELSSLRSEDTAVYYCARSLDGYFDYWGQGTTVTVSS
VL: DIQLTQSPSSLSASVGDRVTITCRAGENIYSYLAWYQQKPGKAPKLLVYNAKILAEGVPSRFSGSGSGTDFTLTISSLQPEDFATYYCQHHYDTPWTFGGGTKLTVLG
Regarding B2, the half-maximal effective concentration (EC50) in test [3] is 4.05 nM. In test [4], this molecule returned an IC50 of 4.35 µg/mL.

B3: 抗TSLP人源化单克隆抗体5F10-69H13L (antibody, human IgG2, lambda, V domains shown)
VH: EVQLVQSGAEVKKPGATVKISCCASGYSFTSYWMHWVQQAPGKGLEWMGLIDPTDSEISLSQKFKDRVTLTVDKSTDTAYMELSSLRSEDTAVYYCARSLDGFFDQWGQGTTVTVSS
VL: DIQLTQSPSSLSASVGDRVTITCRAGENIYSYLAWYQQKPGKAPKLLVYNAKILAEGVPSRFSGSGSGTDFTLTISSLQPEDFATYYCQHHYDTPWTFGGGTKLTVLG
B3 had an EC50 in test [3] of 31.6 nM. In addition, the IC50 in test [4] came out at 7.57 µg/mL.

B4: 抗TSLP人源化单克隆抗体9F8-46H13L (antibody, human IgG2, lambda, V domains shown)
VH: QVQLVQSGAEVKKPGASVKVSCCASGYSFTTYWMHWVRQAPGQGLEWMGIIDPSDSETTLNQKFKDRVTLTVDKSTSTAYMELSSLRSEDTAVYYCTRSLDGYFDYWGQGTTVTVSS
VL: DIQLTQSPSSLSASVGDRVTITCRAGENIYSYLAWYQQKPGKAPKLLVYNAKILAEGVPSRFSGSGSGTDFTLTISSLQPEDFATYYCQHHYDTPWTFGGGTKLTVLG
In test [3], B4 registered an EC50 of 9.52 nM. In test [4], the IC50 is 4.05 µg/mL.

B5: 鼠源抗TSLP单克隆抗体10D9-M-432 (antibody, V domains shown)
VH: VNCKESGPQLVRPGASVKISCKASAYSFTTYWMHWVKQRPGQGLEWIGLIDPSDSETTLNQKFKDKATLTVDKSSSTAYMQLTSPTSEDSAVYYCARSLDGYFDYWGQGTTVTVSS
VL: DIDLTQSPASLSASVGETVTITCRAGENIYSYLAWYQQKQGKSPQLLVYNAKILAESVPSRFSGSGSGTQFSLKINSLQPEDFGIYSCQHHYDTPWTFGGGTKLE
notes: as for B1
As for B5, the IC50 in test [1] was 12 µg/mL. For the same molecule, the response in test [2] was half-maximal at 8.16 nM (EC50).

B6: 鼠源抗TSLP单克隆抗体9F8-1-25 (antibody, V domains shown)
VH: VQLQQSGPQLVRPGASVKISCKASGYSFTTYWMHWVKQRPGQGLEWIGIIDPSDSETTLNQKFKDKATLTVDKSSSTAYIQLSSPTSEDSAVYYCTRSLDGYFDYWGQGTTVTV
VL: DIDLTQSPASLSASVGETVTITCRAGENIYSYLAWYQQKQGKSPQLLVYNAKILAESVPSRFSGSGSGTQFSLKINSLQPEDFGIYSCQHHYDTPWTFGGGTKLE
notes: as for B1
In test [1], B6 returned an IC50 of 10.7 µg/mL. Besides, in test [2], the EC50 was found to be 11.4 nM.

B7: Tezepelumab(安进和阿斯利康合作开发抗体) (antibody, V domains shown)
VH: QMQLVESGGGVVQPGRSLRLSCAASGFTFRTYGMHWVRQAPGKGLEWVAVIWYDGSNKHYADSVKGRFTITRDNSKNTLNLQMNSLRAEDTAVYYCARAPQWELVHEAFDIWGQGTMVTVSS
VL: SYVLTQPPSVSVAPGQTARITCGGNNLGSKSVHWYQQKPGQAPVLVVYDDSDRPSWIPERFSGSNSGNTATLTISRGEAGDEADYYCQVWDSSSDHVVFGGGTKLTVLG
As for B7, the EC50 in test [3] was found to be 1.8 nM; in test [2], 2.93 nM. Further, the IC50 in test [1] is 6.22 µg/mL; in test [4], 8.93 µg/mL.
